Test results as given in article PMC6651773, “2-Ketogluconate Kinase from Cupriavidus necator H16: Purification, Characterization, and Exploration of Its Substrate Specificity” (Molecules, 2019).

How the values were obtained:
Assay in all cases: purified protein
Assay type in all cases: biochemical, Cupriavidus necator
[1] = substrate: O=C(O)C(=O)[C@H](O)[C@@H](O)[C@H](O)CO; settings: ATP 1.25 mM, Mg2+ 5 mM, Tris-HCl pH 8.0, KCl 50 mM, 25 °C
[2] = substrate: O=C(O)C(=O)C[C@@H](O)[C@H](O)CO; settings: ATP 1.25 mM, Mg2+ 5 mM, Tris-HCl pH 8.0, KCl 50 mM, 25 °C
[3] = substrate: O=C(O)C(=O)[C@@H](O)[C@H](O)[C@H](O)CO; settings: ATP 1.25 mM, Mg2+ 5 mM, Tris-HCl pH 8.0, KCl 50 mM, 25 °C, sigmoid, Hill n = 1.4
[4] = substrate: O=C(O)C(=O)C[C@H](O)[C@H](O)CO; settings: ATP 1.25 mM, Mg2+ 5 mM, Tris-HCl pH 8.0, KCl 50 mM, 25 °C
[5] = substrate: Nc1ncnc2c1ncn2[C@@H]1O[C@H](COP(=O)(O)OP(=O)(O)OP(=O)(O)O)[C@@H](O)[C@H]1O; settings: KG 1.25 mM, Mg2+ 5 mM, Tris-HCl pH 8.0, KCl 50 mM, 25 °C

B1: KGUKCnec (2-ketogluconate kinase from C. necator H16) (Cupriavidus necator H16) (protein)
chain: MSTDLDVVTLGEAMLMLVAGEAGPLEGAQTFHKRTAGAETNVAIGLSRLGLKVGWASRLGDDSMARYLLGEMQREGVDCSQVVCEPGERTGFQFKGRVDDGSDPPVEYHRRGSAASRMNPEHLDGRWLRRSRHLHVTGVFPALAAGTQAATRQAIATMQAAGRTISFDPNLRPTLWASPELMRETLNDLAQQCDWVLPGIEEGRFLTGHAEPERIAAFYRARGARLVVVKLGADGAYFDGEAGTGHVEAFSVEHVVDTVGAGDGFAVGVISALLEGRPVRDAVRRGAWIGARAVQVRGDTEGLPTHAQLAAASL
notes: full-length ORF (PCR primers kguK-NdeI 5' […] 3' / kguK-BamHI 5' […] 3'
[1]
  Km: 4 ± 1 mM
  Vmax: 1.9 µmol/min/mg
  kcat: 1.1 ± 0.1 s⁻¹
  kcat/Km: 246 ± 70 M⁻¹ s⁻¹
[2]
  Km: 25 ± 4 mM
  Vmax: 3.7 µmol/min/mg
  kcat: 2.1 ± 0.2 s⁻¹
  kcat/Km: 83 ± 20 M⁻¹ s⁻¹
[3]
  K0.5: 0.35 ± 0.03 mM
  Vmax: 10.4 µmol/min/mg
  kcat: 5.8 ± 0.2 s⁻¹
  kcat/Km: 16800 ± 1300 M⁻¹ s⁻¹
[4]
  Km: 1.4 ± 0.2 mM
  Vmax: 18.2 µmol/min/mg
  kcat: 10.2 ± 0.5 s⁻¹
  kcat/Km: 7370 ± 970 M⁻¹ s⁻¹
[5]
  Km: 0.073 ± 0.002 mM
  Vmax: 10.2 µmol/min/mg
  kcat: 5.71 ± 0.05 s⁻¹
  kcat/Km: 78200 ± 2500 M⁻¹ s⁻¹
